Measurements published in patent publication EP4063497B1.

B1: anti-IMP-type carbapenemase antibody 1AA4 (antibody, V domains shown)
VH: VQLVVSGGGLVNPDGSLKLSCAASGFTFSDYYMYWVRQTPEKRLEWVAIISDGGSYTYYPDSVKGRFTISRDNAKNNLYLQMSGLRSEDTAMYYCVRGSFDVWGAGTTVTVSA
VL: DIVMTQSPLTLSVTLGQPASISCRSSQSLLDSGGKTYLNWFLQRPGQSPKRLIYLVSKLDSGVPDRFTGSGSGTDFTLRISRVEAEDLGIYYCFQYTHFPQCTFGGGTTLEIKR
B2: anti-IMP-type carbapenemase antibody AH9 (antibody, V domains shown)
VH: VKLQQSGAELVKPGASVKISCKASGYTFTDYNMDWVKQSHGKSLEWIGDINPNYDSTRYNQKFKGKATLTVDKSSSTAYMELRSLTSEDTAVYYCARDGRYAMDYWGQGTSVTVSS
VL: DIVMTQSPSSLSVSAGEKVTLTCKSSQSLLNSGHQKNYLAWYQQKPGQPPKLLIYGASTRKSGIPDRFTGSGSGTDFTLTISSVQAEDLAVYYCQNDHRYPLTFGAGTKLELKR

Molecular target: IMP-4-type carbapenemase
Test: indirect ELISA, plate coated with IMP-4-type carbapenemase at 0.2 ug/mL, purified antibody serially diluted from 1:1,000
Conditions: scale: dilution factor

| Binder | titer |
| --- | --- |
| B1 | > 640000 |
| B2 | > 640000 |
